Results published in publication PMC5231900 (Molecular Biology of the Cell, 2017).

Tests used:
Test in all cases: pull-down
[1] = molecular target: wild-type HOPS complex purified via Vps39-TAP (yeast, UniProt Q07468;P38959;P20795;P12868;Q03308;P27801)
[2] = molecular target: wild-type HOPS complex purified via Vps41-TAP (yeast, UniProt P38959;Q07468;P20795;P12868;Q03308;P27801)
[3] = molecular target: wild-type Vps39-Vps11 complex (yeast, UniProt Q07468;P12868)
[4] = molecular target: Vps41-Vps3-class C hybrid complex (yeast, UniProt P38959;P23643;P20795;P12868;Q03308;P27801)

Measured: binding result

Chain of wild-type Vps39-Vps11 complex (Q07468 whole entry, chain 1 of 2): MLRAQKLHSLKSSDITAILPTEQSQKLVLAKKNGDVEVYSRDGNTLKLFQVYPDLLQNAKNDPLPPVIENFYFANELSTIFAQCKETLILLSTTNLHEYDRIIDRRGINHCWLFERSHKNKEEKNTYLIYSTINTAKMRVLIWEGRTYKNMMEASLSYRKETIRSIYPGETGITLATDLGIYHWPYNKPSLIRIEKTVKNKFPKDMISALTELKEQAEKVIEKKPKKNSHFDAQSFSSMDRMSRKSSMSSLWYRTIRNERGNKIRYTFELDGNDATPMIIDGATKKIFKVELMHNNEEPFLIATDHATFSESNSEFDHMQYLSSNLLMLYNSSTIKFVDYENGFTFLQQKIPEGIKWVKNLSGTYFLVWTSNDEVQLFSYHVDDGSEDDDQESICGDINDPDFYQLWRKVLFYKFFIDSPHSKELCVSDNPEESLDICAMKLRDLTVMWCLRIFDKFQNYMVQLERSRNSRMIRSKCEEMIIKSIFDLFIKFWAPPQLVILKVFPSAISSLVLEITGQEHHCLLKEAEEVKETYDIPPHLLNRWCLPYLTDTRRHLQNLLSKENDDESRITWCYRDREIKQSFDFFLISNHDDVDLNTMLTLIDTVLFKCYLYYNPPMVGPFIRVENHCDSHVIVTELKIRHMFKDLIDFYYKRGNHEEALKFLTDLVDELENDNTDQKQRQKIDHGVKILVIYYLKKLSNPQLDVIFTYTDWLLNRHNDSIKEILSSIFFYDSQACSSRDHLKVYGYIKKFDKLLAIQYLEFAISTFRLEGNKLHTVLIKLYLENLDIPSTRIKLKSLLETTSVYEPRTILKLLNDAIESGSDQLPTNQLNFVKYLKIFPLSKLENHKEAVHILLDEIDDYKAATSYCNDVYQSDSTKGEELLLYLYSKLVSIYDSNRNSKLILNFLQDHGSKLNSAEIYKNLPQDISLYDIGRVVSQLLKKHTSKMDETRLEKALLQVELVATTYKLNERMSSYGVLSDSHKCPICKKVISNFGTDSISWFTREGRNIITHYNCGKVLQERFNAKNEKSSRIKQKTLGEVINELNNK
Chain of wild-type Vps39-Vps11 complex (P12868 whole entry, chain 2 of 2): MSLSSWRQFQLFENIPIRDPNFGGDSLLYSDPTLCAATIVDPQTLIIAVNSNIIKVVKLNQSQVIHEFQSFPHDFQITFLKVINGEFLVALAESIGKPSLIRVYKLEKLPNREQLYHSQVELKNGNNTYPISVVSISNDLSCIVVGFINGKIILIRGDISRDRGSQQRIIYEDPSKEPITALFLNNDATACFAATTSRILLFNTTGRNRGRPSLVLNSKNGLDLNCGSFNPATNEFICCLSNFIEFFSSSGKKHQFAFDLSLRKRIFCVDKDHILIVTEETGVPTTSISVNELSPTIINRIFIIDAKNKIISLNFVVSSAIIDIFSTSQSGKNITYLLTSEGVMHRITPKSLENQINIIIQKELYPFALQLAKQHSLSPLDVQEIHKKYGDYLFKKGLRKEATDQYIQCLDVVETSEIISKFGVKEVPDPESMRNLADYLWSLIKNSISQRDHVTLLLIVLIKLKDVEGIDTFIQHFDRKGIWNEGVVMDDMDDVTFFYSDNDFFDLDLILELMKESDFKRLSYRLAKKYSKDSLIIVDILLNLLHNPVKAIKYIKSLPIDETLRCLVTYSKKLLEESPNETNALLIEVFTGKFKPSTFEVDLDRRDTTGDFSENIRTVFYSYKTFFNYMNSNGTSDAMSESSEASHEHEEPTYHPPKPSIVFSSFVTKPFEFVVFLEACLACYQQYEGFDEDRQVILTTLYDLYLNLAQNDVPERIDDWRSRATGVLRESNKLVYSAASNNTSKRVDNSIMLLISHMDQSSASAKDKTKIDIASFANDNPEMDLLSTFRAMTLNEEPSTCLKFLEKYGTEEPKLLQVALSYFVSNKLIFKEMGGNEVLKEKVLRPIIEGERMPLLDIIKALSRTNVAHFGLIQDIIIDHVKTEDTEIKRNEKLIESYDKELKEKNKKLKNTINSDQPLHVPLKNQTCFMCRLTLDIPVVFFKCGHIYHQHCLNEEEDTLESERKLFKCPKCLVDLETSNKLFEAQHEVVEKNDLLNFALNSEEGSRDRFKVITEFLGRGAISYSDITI

B1: GST-Ypt7 (natural protein)
chain: MSSRKKNILKVIILGDSGVGKTSLMHRYVNDKYSQQYKATIGADFLTKEVTVDGDKVATMQVWDTAGQERFQSLGVAFYRGADCCVLVYDVTNASSFENIKSWRDEFLVHANVNSPETFPFVILGNKIDAEESKKIVSEKSAQELAKSLGDIPLFLTSAKNAINVDTAFEEIARSALQQNQADTEAFEDDYNDAINIRLDGENNSCSC
binds: all assays above
